Substrate: NC(=O)C[C@H](N)C(=O)O
Assay: direct Nesslerization (ammonia release)
Type: biochemical, Thermococcus sibiricus
Conditions: 90 °C, substrate not named beside the constant, taken as L-asparagine, pH not stated for the kinetics

B1: TsAI (hyperthermophilic L-asparaginase from Thermococcus sibiricus) (Thermococcus sibiricus MM 739) (protein)
chain: MKKLLIIGTGGTIASAKTEQGYKSVLKIDEILKLAKIKLENGYKIDSTNIMNIDSTLIHPEDWEIIAKEVFKALDDYDGIIITHGTDTLAYTASMLSFMIKNPNKPIVLTGSMLPITENGSDAPRNIRTAIKFAMEDVAGVFVAFMDKIMLGCRTSKVRTLGLNAFMSINYPDVAYVKGEKILYNIPKEKFQPNGSPELDTKYEPRVVVLRVTPGLGGEIIDAVLDAGYKGIVLEGYGAGGLPYRKSNLLSKIKEITPKIPVIMTTQALYDGVDMRKYEVGRKALETGIIPAKDMTKEATITKLMWALGHTKDVEKIREIMHTNYVNEIKS
For B1, the Km was 3.8 mM.
